Assay results as given in patent US20220025056A1 (INNATE PHARMA, published 2022).
Like-named read-outs stand apart in the source and are kept apart here.

What was measured:
[1] = target: T1, human ILT2 on primary NK cells (human, UniProt Q8NHL6 24-650); experiment: cell-based or functional assay
[2] = target: T2, human ILT1 (LILRA2) on CHO cells (human, UniProt Q8N149 24-475); experiment: flow cytometry, CHO transfectants
T2 construct: also called CHO ILT1 cell line

[3] = target: T3, human ILT3 (LILRB4) on CHO cells (human, UniProt Q8NHJ6 24-443); experiment: flow cytometry, CHO transfectants
T3 construct: also called CHO ILT3 cell line
T3 sequence (Q8NHJ6 other isoform, or with tags, fused parts or gaps): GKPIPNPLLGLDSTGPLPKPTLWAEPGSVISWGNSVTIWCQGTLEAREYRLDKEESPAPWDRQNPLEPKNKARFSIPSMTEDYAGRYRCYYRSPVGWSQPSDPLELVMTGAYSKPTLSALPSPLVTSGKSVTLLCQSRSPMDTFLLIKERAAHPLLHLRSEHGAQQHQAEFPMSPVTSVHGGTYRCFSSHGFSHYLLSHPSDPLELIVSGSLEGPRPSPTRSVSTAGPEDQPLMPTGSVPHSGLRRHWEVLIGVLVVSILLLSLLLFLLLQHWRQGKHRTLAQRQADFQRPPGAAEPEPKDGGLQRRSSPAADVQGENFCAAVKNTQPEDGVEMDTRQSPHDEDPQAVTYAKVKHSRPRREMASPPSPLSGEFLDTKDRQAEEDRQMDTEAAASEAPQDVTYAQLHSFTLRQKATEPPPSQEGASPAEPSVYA

[4] = target: T4, human ILT4 (LILRB2) on CHO cells (human, UniProt Q8N423 23-597); experiment: flow cytometry, CHO transfectants
T4 construct: also called CHO ILT4 cell line
T4 sequence (Q8N423 other isoform, or with tags, fused parts or gaps): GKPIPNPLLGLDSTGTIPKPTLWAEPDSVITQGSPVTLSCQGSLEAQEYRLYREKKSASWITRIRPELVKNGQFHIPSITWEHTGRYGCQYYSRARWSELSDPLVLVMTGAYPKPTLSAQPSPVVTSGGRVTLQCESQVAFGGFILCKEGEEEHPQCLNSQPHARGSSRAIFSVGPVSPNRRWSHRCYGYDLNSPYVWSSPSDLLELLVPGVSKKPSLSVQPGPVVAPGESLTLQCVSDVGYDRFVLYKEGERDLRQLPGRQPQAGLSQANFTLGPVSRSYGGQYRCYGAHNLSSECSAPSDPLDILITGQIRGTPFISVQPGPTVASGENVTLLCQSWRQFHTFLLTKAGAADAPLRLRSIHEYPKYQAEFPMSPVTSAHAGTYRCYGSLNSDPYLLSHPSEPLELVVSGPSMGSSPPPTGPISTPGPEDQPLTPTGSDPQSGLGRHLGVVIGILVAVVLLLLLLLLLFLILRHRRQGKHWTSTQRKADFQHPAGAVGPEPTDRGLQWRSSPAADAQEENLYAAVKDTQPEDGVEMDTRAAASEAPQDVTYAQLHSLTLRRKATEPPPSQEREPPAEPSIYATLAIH

[5] = target: T5, human ILT5 (LILRB3) on CHO cells (human, UniProt O75022 24-626); experiment: flow cytometry, CHO transfectants
T5 construct: also called CHO ILT5 cell line

[6] = target: T6, human ILT6 (LILRA3) on CHO cells (human, UniProt Q8N6C8 24-434); experiment: flow cytometry, CHO transfectants
T6 construct: also called CHO ILT6 cell line; human ILT-6 polypeptide
T6 sequence (Q8N6C8 other isoform, or with tags, fused parts or gaps): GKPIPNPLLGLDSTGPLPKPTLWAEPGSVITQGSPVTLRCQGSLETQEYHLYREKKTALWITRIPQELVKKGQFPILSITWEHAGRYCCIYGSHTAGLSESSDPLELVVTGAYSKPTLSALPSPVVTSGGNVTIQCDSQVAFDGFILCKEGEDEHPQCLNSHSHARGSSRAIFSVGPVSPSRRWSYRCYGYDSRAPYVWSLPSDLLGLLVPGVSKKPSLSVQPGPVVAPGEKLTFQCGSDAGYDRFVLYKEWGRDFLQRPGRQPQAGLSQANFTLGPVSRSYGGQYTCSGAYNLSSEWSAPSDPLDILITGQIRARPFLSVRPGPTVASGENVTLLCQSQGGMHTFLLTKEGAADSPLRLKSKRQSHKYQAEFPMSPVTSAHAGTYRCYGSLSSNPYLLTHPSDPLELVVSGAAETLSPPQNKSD

[7] = target: T7, human ILT7 (LILRA4) on CHO cells (human, UniProt P59901 28-494); experiment: flow cytometry, CHO transfectants
T7 construct: also called CHO ILT7 cell line
T7 sequence (P59901 other isoform, or with tags, fused parts or gaps): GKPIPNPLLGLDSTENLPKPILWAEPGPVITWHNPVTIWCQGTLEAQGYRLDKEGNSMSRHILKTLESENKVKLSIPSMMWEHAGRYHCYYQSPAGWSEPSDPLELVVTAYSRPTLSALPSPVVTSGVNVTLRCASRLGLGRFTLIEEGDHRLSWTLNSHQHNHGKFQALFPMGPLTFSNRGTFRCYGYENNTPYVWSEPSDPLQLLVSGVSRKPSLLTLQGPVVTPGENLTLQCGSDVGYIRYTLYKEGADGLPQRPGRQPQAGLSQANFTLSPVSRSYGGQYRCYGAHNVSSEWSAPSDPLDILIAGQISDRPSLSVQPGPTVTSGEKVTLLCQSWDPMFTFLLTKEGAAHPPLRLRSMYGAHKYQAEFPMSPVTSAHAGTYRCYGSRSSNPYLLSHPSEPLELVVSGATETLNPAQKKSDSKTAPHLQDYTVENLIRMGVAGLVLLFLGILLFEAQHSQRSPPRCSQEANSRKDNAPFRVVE

[8] = target: T8, human ILT8 (LILRA6) on CHO cells (human, UniProt Q6PI73 24-477); experiment: flow cytometry, CHO transfectants
T8 construct: also called CHO ILT8 cell line
T8 sequence (Q6PI73 other isoform, or with tags, fused parts or gaps): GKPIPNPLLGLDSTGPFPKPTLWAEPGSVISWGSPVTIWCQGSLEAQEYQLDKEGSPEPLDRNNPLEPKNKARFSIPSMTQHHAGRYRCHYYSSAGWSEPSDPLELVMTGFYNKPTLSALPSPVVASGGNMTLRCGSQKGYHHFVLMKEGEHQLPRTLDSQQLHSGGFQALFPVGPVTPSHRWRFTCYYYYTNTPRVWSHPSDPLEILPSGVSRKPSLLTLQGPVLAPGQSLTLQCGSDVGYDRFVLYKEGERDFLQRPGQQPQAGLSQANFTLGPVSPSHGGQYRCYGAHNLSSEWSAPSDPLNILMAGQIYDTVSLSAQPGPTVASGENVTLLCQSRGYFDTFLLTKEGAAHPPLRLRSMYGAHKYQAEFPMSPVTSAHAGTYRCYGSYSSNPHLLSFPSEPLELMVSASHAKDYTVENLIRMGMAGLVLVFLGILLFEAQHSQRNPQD

[9] = target: T9, human ILT2 (LILRB1) expressed at the surface of transfected cells (human, UniProt Q8NHL6 24-650); experiment: flow cytometry, CHO-ILT2 cells
T9 construct: also called CHO-ILT2; CHO ILT2 cell line
T9 sequence (Q8NHL6 24-650): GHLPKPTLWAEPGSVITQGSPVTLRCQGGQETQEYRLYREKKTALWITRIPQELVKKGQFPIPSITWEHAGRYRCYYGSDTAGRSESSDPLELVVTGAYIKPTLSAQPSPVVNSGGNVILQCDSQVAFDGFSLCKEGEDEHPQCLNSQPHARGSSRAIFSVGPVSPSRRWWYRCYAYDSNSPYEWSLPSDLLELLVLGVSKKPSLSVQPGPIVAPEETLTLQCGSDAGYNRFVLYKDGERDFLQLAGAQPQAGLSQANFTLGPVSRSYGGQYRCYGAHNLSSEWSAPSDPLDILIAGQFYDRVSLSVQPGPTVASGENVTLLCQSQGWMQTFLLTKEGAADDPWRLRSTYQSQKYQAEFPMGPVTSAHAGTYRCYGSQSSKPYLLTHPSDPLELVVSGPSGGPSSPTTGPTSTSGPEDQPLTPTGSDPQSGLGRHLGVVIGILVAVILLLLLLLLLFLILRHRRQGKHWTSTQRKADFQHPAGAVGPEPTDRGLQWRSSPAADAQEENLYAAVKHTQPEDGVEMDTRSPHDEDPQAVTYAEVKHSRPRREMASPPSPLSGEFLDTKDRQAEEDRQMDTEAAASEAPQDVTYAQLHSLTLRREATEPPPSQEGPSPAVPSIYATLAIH
Method: Cells were incubated with various concentrations of unlabeled anti-ILT2 antibodies from 30 μg/ml to 5×10-⁴ μg/ml, for 30 minutes at 4° C. After washes with staining buffer, cells were incubated for 30 min at 4° C. with Goat anti-human H+L AF488 secondary antibody (Jackson Immunoresearch #109-546-088) or Goat anti-mouse H+L AF488 secondary antibody for commercially available antibodies (Jackson Immuoresearch #115-545-146). Fluorescence was measured on an Accury C6 flow cytometer equipped with an HTFC plate loader.

[10] = target: T1, human ILT2 on primary NK cells; experiment: flow cytometry, primary NK cells
[11] = target: T10, anchored ILT2 D2 domain protein (human); experiment: flow cytometry, CHO cells with anchored ILT2 domain proteins
T10 construct: on CHO cells; the entry includes leader remnant, V5 tag and CD24 GPI anchor signal
T10 sequence (chain, as listed by the source limits assumed): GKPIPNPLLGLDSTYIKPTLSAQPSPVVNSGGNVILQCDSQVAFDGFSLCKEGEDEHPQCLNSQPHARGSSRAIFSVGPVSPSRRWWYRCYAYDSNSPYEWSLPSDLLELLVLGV

[12] = target: T11, anchored ILT2 D2-D3 domain protein (human, UniProt Q8NHL6 122-321); experiment: as above
T11 construct: on CHO cells; the entry includes leader remnant, V5 tag and CD24 GPI anchor signal
T11 sequence (Q8NHL6 other isoform, or with tags, fused parts or gaps limits assumed): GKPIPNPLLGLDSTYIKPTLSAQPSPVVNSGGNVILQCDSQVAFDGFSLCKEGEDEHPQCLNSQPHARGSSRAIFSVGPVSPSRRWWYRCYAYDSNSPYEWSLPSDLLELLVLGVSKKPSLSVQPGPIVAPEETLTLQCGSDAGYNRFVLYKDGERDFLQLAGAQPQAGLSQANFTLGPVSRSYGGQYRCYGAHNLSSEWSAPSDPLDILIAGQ

[13] = target: T12, anchored ILT2 D3-D4 domain protein (human, UniProt Q8NHL6 223-650); experiment: as above
T12 construct: on CHO cells; the entry includes leader remnant, V5 tag, and the ILT2 transmembrane and cytoplasmic parts

[14] = target: T13, anchored ILT2 D2-D3-D4 domain protein (human, UniProt Q8NHL6 122-650); experiment: as above
T13 construct: on CHO cells; the entry includes leader remnant, V5 tag, and the ILT2 transmembrane and cytoplasmic parts

[15] = target: T14, ILT-2_6xHis recombinant protein (human, UniProt Q8NHL6 24-458); experiment: SPR, antibody captured on Protein-A, soluble ILT2 analyte
T14 construct: monomers purified by SEC; also called recombinant 6xHIS tagged ILT2; recombinant human ILT2 proteins
Method: (§1) Measurements were performed on a Biacore T200 apparatus (Biacore GE Healthcare) at 25° C. In all Biacore experiments HBS-EP+(Biacore GE Healthcare) and NaOH 10 mM served as running buffer and regeneration buffer respectively. Sensorgrams were analyzed with Biacore T100 Evaluation software. Protein-A was purchased from (GE Healthcare). Human ILT2 recombinant proteins were cloned, produced and purified at Innate Pharma. Protein-A proteins were immobilized covalently to carboxyl groups in the dextran layer on a Sensor Chip CM5. The chip surface was activated with EDC/NHS (N-ethyl-N′-(3-dimethylaminopropyl) carbodiimidehydrochloride and N-hydroxysuccinimide (Biacore GE Healthcare)). Protein-A was diluted to 10 μg/ml in coupling buffer (10 mM acetate, pH 5.6) and injected until the appropriate immobilization level was reached (i.e. 600 RU). Deactivation of the remaining activated groups was performed using 100 mM ethanolamine pH 8 (Biacore GE Healthcare). […] For blank subtraction, cycles were performed again replacing ILT2 proteins with running buffer. The monovalent affinity analysis was conducted following a regular Capture-Kinetic protocol as recommended by the manufacturer (Biacore GE Healthcare kinetic wizard). Seven serial dilutions of human ILT2 proteins, ranging from 1.95 nM to 250 nM were sequentially injected over the captured antibodies and allowed to dissociate for 10 min before regeneration. The entire sensorgram sets were fitted using the 1:1 kinetic binding model or two state reaction model, as a function of the profile of the curves.

[16] = target: T15, ILT2 mutant 1 (human, UniProt Q8NHL6 24-650); experiment: flow cytometry titration on HEK293T cells transfected with ILT2 mutant 1
T15 construct: transfected in HEK293T cells; also called M1

[17] = target: T16, ILT2 mutant 2 (human, UniProt Q8NHL6 24-650); experiment: flow cytometry titration on HEK293T cells transfected with ILT2 mutant 2
T16 construct: transfected in HEK293T cells; also called M2

[18] = target: T9, human ILT2 (LILRB1) expressed at the …; experiment: flow cytometry titration on HEK293T cells transfected with wild-type ILT2
[19] = target: T17, anchored ILT2 D4 domain protein (human, UniProt Q8NHL6 322-650); experiment: flow cytometry on CHO cells expressing the anchored ILT2 D4 domain protein (SEQ ID NO: 49); stacked histograms, axis without numbers
T17 construct: on CHO cells; the entry includes leader remnant, V5 tag, and the ILT2 transmembrane and cytoplasmic parts
T17 sequence (Q8NHL6 other isoform, or with tags, fused parts or gaps limits assumed): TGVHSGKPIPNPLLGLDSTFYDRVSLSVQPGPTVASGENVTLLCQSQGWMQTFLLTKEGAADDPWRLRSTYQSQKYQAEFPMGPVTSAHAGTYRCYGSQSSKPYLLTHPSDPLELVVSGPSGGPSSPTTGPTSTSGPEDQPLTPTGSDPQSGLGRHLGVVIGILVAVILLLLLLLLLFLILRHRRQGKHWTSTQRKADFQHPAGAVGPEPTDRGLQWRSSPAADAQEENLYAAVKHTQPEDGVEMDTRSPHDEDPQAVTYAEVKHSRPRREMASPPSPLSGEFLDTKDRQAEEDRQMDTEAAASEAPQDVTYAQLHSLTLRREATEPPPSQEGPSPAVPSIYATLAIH

[20] = target: T18, anchored ILT2 D3 domain protein (human); experiment: flow cytometry on CHO cells expressing the anchored ILT2 D3 domain protein (SEQ ID NO: 48); stacked histograms, axis without numbers, no control histogram
T18 construct: on CHO cells; the entry includes leader remnant, V5 tag and CD24 GPI anchor signal
T18 sequence (chain, as listed by the source limits assumed): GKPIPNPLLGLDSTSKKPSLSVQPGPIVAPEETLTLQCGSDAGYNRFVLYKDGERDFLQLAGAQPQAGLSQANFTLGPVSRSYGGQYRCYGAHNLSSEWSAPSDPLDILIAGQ

[21] = target: T19, biotinylated BirA-tagged ILT2 protein tetramerised on APC-conjugated streptavidin (human, UniProt Q8NHL6 24-458, limits assumed, 1 biotin molecule per ILT2 protein (BirA tag)); experiment: flow cytometry blocking assay: ILT2-streptavidin-APC complexes pre-incubated with antibody, then added to K562 cells expressing HLA-G; blocked ligand HLA-G
T19 construct: ratio 1 streptavidin per 4 ILT2 protein; streptavidin-APC not written as a chain; also called ILT2-SA tetramers; recombinant biotinylated ILT2

[22] = target: T19, biotinylated BirA-tagged ILT2 protein …; experiment: flow cytometry blocking assay: ILT2-streptavidin-APC complexes pre-incubated with antibody, then added to WIL2-NS cells expressing HLA-A2; blocked ligand HLA-A2
[23] = target: T20, anchored ILT2 D1-D2 domain protein (human, UniProt Q8NHL6 24-222); experiment: flow cytometry, CHO cells with anchored ILT2 domain proteins
T20 construct: on CHO cells; the entry includes leader remnant, V5 tag and CD24 GPI anchor signal

[24] = target: T21, anchored ILT2 D1-D2-D3 domain protein (human, UniProt Q8NHL6 24-321); experiment: as above
T21 construct: on CHO cells; the entry includes leader remnant, V5 tag and CD24 GPI anchor signal

[25] = target: T9, human ILT2 (LILRB1) expressed at the …; experiment: flow cytometry titration on HEK293T cells transfected with wild-type ILT2; remark: listed apart in the source
[26] = target: T22, ILT2 mutant 4-1 (human, UniProt Q8NHL6 24-650); experiment: flow cytometry titration on HEK293T cells transfected with ILT2 mutant 4-1
T22 construct: transfected in HEK293T cells

[27] = target: T23, ILT2 mutant 4-2 (human, UniProt Q8NHL6 24-650); experiment: flow cytometry titration on HEK293T cells transfected with ILT2 mutant 4-2
T23 construct: transfected in HEK293T cells

[28] = target: T24, Mutant D4-4; experiment: flow cytometry titration on HEK293T cells transfected with ILT2 mutant 4-4
T24 construct: also called ILT2 mutant 4-4; mutant 4-4

[29] = target: T25, ILT2 mutant 4-5 (human, UniProt Q8NHL6 24-650); experiment: flow cytometry titration on HEK293T cells transfected with ILT2 mutant 4-5
T25 construct: transfected in HEK293T cells

[30] = target: T26, Mutant D4-1B; experiment: flow cytometry titration on HEK293T cells transfected with ILT2 mutant 4-1b
T26 construct: read as S304F; also called ILT2 mutant 4-1b; mutant 4-1b

[31] = target: T27, anchored ILT2 D1 domain protein (human); experiment: flow cytometry on CHO cells expressing the anchored ILT2 D1 domain protein (SEQ ID NO: 46); stacked histograms, axis without numbers
T27 construct: on CHO cells; the entry includes leader remnant, V5 tag and CD24 GPI anchor signal

[32] = target: T14, ILT-2_6xHis recombinant protein; experiment: SPR, antibody captured on Protein-A, soluble ILT2 analyte; two state fit
Method: as §1, with “Seven serial dilutions of human ILT2 proteins, ranging from 1.95 nM to 250 nM were sequentially injected over the captured antibodies and allowed to dissociate for 10 min before regeneration. The entire sensorgram sets were fitted using the 1:1 kinetic binding model or two state reaction model, as a function of the profile of the curves.” left out

T2 sequence (Q8N149 other isoform, or with tags, fused parts or gaps): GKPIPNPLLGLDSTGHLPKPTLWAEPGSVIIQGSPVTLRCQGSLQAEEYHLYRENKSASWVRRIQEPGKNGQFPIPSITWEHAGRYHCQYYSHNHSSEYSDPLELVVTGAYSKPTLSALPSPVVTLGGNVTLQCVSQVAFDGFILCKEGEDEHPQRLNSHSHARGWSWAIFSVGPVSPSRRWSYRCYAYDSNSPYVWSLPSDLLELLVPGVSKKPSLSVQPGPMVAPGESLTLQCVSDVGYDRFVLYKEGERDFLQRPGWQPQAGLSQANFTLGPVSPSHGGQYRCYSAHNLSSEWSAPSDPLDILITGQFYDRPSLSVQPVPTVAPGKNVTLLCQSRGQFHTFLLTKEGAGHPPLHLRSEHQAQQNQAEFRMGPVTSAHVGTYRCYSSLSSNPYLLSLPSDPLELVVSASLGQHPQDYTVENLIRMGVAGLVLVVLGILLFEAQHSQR
T1 sequence (Q8NHL6 24-650): as the sequence (Q8NHL6 24-650) above

B1: 12D12 (antibody, human IgG1, V domains shown)
VH: QVQLQQPGAELVKPGASVRMSCKASGYTFTSYWVHWVKQRPGQGLEWIGVIDPSDSYTSYNQNFKGKATLTVDTSSKTAYIHLSSLTSEDSAVYFCARGERYDGDYFAMDYWGQGTSVTVSS
VL: DIVMTQSPASLSVSVGETVTITCRASENIYSNLAWYQQKQGKSPQLLVYAATNLADGVPSRFSGSRSGTQYSLKINSLQSEDFGTYYCQHFWNTPRTFGGGTKLEIK
B1 was tested, and the “CD137 expression on ILT2-positive primary NK cells” value [1] was 2 fold, the “CD137 expression on NK cells of urothelial cancer patients with HLA-A2-expressing B cells” value [1] was greater than 2 fold and the binding result [2] was “no binding”. B1: no binding [3]; no binding [4]; no binding [5]. B1: no binding [6]; no binding [7]; no binding [8]. For the same binder, the EC50 [9] was 0.36 µg/mL, the EC50 [10] was 0.09 µg/mL and the binding result [11] was “no binding”. B1: no binding [12]; no binding [13]; no binding [14]. For the same binder, the Kd [15] was 1 nM, the koff [15] was 0.00042 s⁻¹ and the kon [15] was 430000 M⁻¹ s⁻¹. The “EC50 (read off the curve)” value [16] was roughly 0.4 µg/mL, the binding result [17] was “no binding (tested: about 20 µg/ml)” and the “EC50 (read off the curve)” value [18] was roughly 0.5 µg/mL. The binding result [19] was “no binding”, the binding result [20] was “no binding” and the “IC50 (read off the curve)” value [21] was roughly 0.2 µg/mL. For the same binder, the “IC50 (read off the curve)” value [22] was roughly 0.1 µg/mL.

B2: 18E1 (antibody, human IgG1, V domains shown)
VH: QVQLQQSGAELVKPGASVRLSCKASGYTFTAHTIHWVKQRSGQGLEWIGWLYPGSGSIKYNEKFKDKATLTADKSSSTVYMELSRLTSEDSAVYFCARHTNWDFDYWGQGTTLTVSS
VL: NIVLTQSPASLAVSLGQRATISCKASQSVDYGGASYMNWYQQKPGQPPKLLIYAASNLESGIPARFSGSGSGTDLTLNIHPVEEEDAAMYYCQQSNEEPWTFGGGTKLEIK
With B2 the “CD137 expression on ILT2-positive primary NK cells” value [1] was 2 fold, the “CD137 expression on NK cells of urothelial cancer patients with HLA-A2-expressing B cells” value [1] was greater than 2 fold and the binding result [2] was “no binding”. B2: no binding [3]; no binding [4]; no binding [5]. B2: no binding [6]; no binding [7]; no binding [8]. The EC50 [9] was 0.12 µg/mL, the EC50 [10] was 0.11 µg/mL and the binding result [11] was “no binding”. B2: no binding [23]; no binding [12]; no binding [24]. For the same binder, the Kd [15] was 0.2 nM, the koff [15] was 0.00011 s⁻¹ and the “EC50 (read off the curve)” value [25] was roughly 0.3 µg/mL. B2: no binding (tested: about 20 µg/ml) [26]; no binding (tested: about 20 µg/ml) [27]; binds [28]. B2: binds [29]; binds [30]; no binding [31]. B2: no binding [20].

B3: 3H5 (antibody, human IgG1, V domains shown)
VH: QVQLKESGPGLVAPSQSLSITCTVSGFSLTSYGVSWVRQPPGKGLEWLGVIWGDGSTNYHSALISRLSISKDNSKSQVFLKLNSLQTDDTATYYCAKPRWDDYAMDYWGQGTSVTVSS
VL: DIQMTQTTSSLSASLGDRVTISCRASQDISNYLNWYQQKPDGTVKLLIYYTSRLHSGVPSRFSGSGSGTDYSLTISNLEQEDIATYFCQQGNTLWTFGGGTKLEIK
B3: no binding [2]; no binding [3]; no binding [4]. B3: no binding [5]; no binding [6]; no binding [7]. For the same binder, the binding result [8] was “no binding”, the EC50 [9] was 0.35 µg/mL and the EC50 [10] was 0.48 µg/mL. B3: no binding [11]; no binding [12]; no binding [13]. For the same binder, the binding result [14] was “no binding”, the Kd [32] was 4.4 nM and the binding result [16] was “binds”. For the same binder, the binding result [17] was “no binding (tested: about 20 µg/ml)”, the “EC50 (read off the curve)” value [18] was roughly 0.9 µg/mL and the binding result [19] was “no binding”. B3: no binding [20].
